Test results reported in patent US20060024300A1 (published 2006).

B1: 2H7.v73 (antibody, IgG1)
heavy: not shown
light: DIQMTQSPSSLSASVGDRVTITCRASSSVSYLHWYQQKPGKAPKPLIYAPSNLASGVPSRFSGSGSGTDFTLTISSLQPEDFATYYCQQWSFNPPTFGQGTKVEIKRTVAAPSVFIFPPSDEQLKSGTASVVCLLNNFYPREAKVQWKVDNALQSGNSQESVTEQDSKDSTYSLSSTLTLSKADYEKHKVYACEVTHQGLSSPVTKSFNRGEC
notes: IgG1; 2H7.v16 background
B2: 2H7.v75 (antibody, IgG1)
heavy: EVQLVESGGGLVQPGGSLRLSCAASGYTFTSYNMHWVRQAPGKGLEWVGAIYPGNGDTSYNQKFKGRFTISVDKSKNTLYLQMNSLRAEDTAVYYCARVVYYSASYWYFDVWGQGTLVTVSSASTKGPSVFPLAPSSKSTSGGTAALGCLVKDYFPEPVTVSWNSGALTSGVHTFPAVLQSSGLYSLSSVVTVPSSSLGTQTYICNVNHKPSNTKVDKKVEPKSCDKTHTCPPCPAPELLGGPSVFLFPPKPKDTLMISRTPEVTCVVVDVSHEDPEVKFNWYVDGVEVHNAKTKPREEQYNATYRVVSVLTVLHQDWLNGKEYKCKVSNKALPAPIAATISKAKGQPREPQVYTLPPSREEMTKNQVSLTCLVKGFYPSDIAVEWESNGQPENNYKTTPPVLDSDGSFFLYSKLTVDKSRWQQGNVFSCSVMHEALHNHYTQKSLSLSPGK
light: B1 light
notes: IgG1; 2H7.v16 background
B3: 2H7 version 166 (antibody, human IgG1, kappa, V domains shown)
VH: EVQLVESGGGLVQPGGSLRLSCAASGYTFTSYNMHWVRQAPGKGLEWVGAIYPGNGDTSYNQKFKGRFTISVDKSKNTLYLQMNSLRAEDTAVYYCARVVYYGGDWYFDVWGQGTLVTVSS
VL: DIQMTQSPSSLSASVGDRVTITCRASSSVSYMHWYQQKPGKAPKPLIYAPSNLASGVPSRFSGSGSGTDFTLTISSLQPEDFATYYCQQWSFNPPTFGQGTKVEIKR
notes: IgG1; 2H7.v16 background; Y100b is deleted (empty new residue)

How the values were obtained:
CD20 [1] = biological target: T1, CD20 (human, UniProt P11836 1-297); test: Scatchard analysis, cold antibody against 125I-2H7.v16 on WIL2-S cells
T1 construct: whole, on cells; not clear that this entry is the whole human CD20, so it is not used; also called human CD20; CD20 antigen
T1 sequence (looked up): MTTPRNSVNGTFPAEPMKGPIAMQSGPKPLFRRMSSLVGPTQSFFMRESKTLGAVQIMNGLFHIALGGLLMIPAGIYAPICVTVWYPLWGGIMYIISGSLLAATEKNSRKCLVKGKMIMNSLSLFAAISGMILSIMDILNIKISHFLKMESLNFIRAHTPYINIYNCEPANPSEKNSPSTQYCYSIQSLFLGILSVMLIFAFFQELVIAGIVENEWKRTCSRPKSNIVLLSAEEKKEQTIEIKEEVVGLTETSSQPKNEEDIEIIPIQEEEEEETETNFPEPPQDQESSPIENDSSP
Description: All dilutions were performed in binding assay buffer (DMEM media containing 1% bovine serum albumin, 25 mM HEPES pH 7.2, and 0.01% sodium azide). […] WIL2-S cells (60,000 cells in 0.025 mL) were then added. The plate was sealed and incubated at room temperature for 24 h, then centrifuged for 15 min at 3,500 RPM. The supernatant was then aspirated and the cell pellet was washed and centrifuged. The supernatant was again aspirated, and the pellets were dissolved in 1N NaOH and transferred to tubes for gamma counting.

CD20 [2] = biological target: T1, CD20; test: cell-based ELISA, WIL2-S cells
Description: To measure relative binding affinities to the CD20 antigen, a cell-based ELISA assay was developed. […] The cells were washed with PBS containing 1% FBS (assay buffer) and seeded at 250-300,000 cellwell in 96-well round bottom plates (Nunc, Roskilde, Denmark). […] The plates were buried in ice and incubated for 45 min. To remove the unbound antibody, 0.1 mL assay buffer were added to the wells. Plates were centrifuged and supernatants were removed. Cells were washed two more times with 0.2 mL assay buffer. Antibody bound to the plates was detected by adding peroxidase conjugated goat anti-human Fc antibody (Jackson ImmunoResearch, West Grove, Pa.) to the plates. After a 45 min incubation, cells were washed as described before. TMB substrate (3,3′,5,5′-tetramethyl benzidine; Kirkegaard & Perry Laboratories, Gaithersburg, Md.) was added to the plates. The reaction was stopped by adding 1 M phosphoric acid. Titration curves were fit with a four-parameter nonlinear regression curve-fitting program (KaleidaGraph, Synergy software, Reading, Pa.). The absorbance at the midpoint of the titration curve (mid-OD) and its corresponding concentration of the standard were determined. Then the concentration of each variant at this mid-OD was determined, and the concentration of the standard was divided by that of each variant.

| Binder | Kd (CD20 [1]) [nM] | Relative binding (CD20 [2]) |
| --- | --- | --- |
| B1 | 1.22 | – |
| B2 | 1.09 | – |
| B3 | – | 0.99 ratio (2H7.v16 conc./variant conc.) |
